Target: T1, FLAG-UPF1 (UniProt Q92900-2 1-1118)
T1 sequence (looked up): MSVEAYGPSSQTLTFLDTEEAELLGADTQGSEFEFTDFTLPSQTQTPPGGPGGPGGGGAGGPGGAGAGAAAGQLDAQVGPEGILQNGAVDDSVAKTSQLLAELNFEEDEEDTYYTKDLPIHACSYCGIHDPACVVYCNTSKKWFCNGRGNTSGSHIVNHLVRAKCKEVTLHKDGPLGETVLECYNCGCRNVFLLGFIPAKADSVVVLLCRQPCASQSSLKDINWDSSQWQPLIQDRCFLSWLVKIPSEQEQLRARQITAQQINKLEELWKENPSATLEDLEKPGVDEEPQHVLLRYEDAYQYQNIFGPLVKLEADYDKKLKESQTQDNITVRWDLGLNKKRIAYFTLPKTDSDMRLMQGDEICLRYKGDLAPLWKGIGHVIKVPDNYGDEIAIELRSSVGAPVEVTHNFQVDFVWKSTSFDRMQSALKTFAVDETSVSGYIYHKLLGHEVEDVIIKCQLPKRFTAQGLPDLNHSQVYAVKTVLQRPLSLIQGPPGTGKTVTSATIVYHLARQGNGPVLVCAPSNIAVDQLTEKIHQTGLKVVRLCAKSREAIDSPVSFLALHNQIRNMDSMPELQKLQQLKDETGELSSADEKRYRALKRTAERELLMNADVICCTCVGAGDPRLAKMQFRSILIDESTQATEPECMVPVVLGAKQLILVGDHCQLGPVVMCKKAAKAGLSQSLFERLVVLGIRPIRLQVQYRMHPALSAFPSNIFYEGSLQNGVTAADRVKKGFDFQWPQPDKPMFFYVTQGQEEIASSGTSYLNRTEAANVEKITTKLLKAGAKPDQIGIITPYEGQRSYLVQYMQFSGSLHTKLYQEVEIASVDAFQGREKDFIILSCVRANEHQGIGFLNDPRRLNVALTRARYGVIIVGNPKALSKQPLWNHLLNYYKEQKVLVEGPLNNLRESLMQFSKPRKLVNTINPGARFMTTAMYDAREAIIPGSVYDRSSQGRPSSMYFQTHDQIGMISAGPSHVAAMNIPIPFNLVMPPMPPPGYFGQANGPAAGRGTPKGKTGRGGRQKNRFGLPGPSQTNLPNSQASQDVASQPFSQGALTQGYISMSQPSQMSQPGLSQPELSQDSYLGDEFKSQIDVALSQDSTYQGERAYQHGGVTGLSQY
Experiment: co-IP

fold change of the association after IR exposure, against untreated cells: 3.1 fold
B1: staufen1 (STAU1), endogenous (natural protein, human (endogenous in HEK293T), UniProt O95793 1-577, looked up)
chain: MSQVQVQVQNPSAALSGSQILNKNQSLLSQPLMSIPSTTSSLPSENAGRPIQNSALPSASITSTSAAAESITPTVELNALCMKLGKKPMYKPVDPYSRMQSTYNYNMRGGAYPPRYFYPFPVPPLLYQVELSVGGQQFNGKGKTRQAAKHDAAAKALRILQNEPLPERLEVNGRESEEENLNKSEISQVFEIALKRNLPVNFEVARESGPPHMKNFVTKVSVGEFVGEGEGKSKKISKKNAAIAVLEELKKLPPLPAVERVKPRIKKKTKPIVKPQTSPEYGQGINPISRLAQIQQAKKEKEPEYTLLTERGLPRRREFVMQVKVGNHTAEGTGTNKKVAKRNAAENMLEILGFKVPQAQPTKPALKSEEKTPIKKPGDGRKVTFFEPGSGDENGTSNKEDEFRMPYLSHQQLPAGILPMVPEVAQAVGVSQGHHTKDFTRAAPNPAKATVTAMIARELLYGGTSPTAETILKNNISSGHVPHGPLTRPSEQLDYLSRVQGFQVEYKDFPKNNKNEFVSLINCSSQPPLISHGIGKDVESCHDMAALNILKLLSELDQQSTEMPRTGNGPMSVCGRC
